From article PMC9482650, “Quantitative fragmentomics allow affinity mapping of interactomes” (Nature Communications, 2022)

T1: SNTA1, Q13424
T1 sequence (Q13424 82-180, limits assumed, looked up): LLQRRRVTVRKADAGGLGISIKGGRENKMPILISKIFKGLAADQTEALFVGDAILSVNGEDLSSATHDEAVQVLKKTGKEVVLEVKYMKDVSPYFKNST

T2: MPP7, Q5T2T1
T2 sequence (Q5T2T1 134-230, limits assumed, looked up): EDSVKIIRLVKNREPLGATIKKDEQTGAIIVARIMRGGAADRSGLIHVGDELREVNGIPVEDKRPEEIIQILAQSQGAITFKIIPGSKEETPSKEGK

T3: PDZRN3_1, Q9UPQ7
T3 sequence (Q9UPQ7 244-349, limits assumed, looked up): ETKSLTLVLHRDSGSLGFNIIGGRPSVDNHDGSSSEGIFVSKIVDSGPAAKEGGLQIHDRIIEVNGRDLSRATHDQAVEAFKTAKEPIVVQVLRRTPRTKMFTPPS

T4: DLG3_3, Q92796
T4 sequence (Q92796 374-475, limits assumed, looked up): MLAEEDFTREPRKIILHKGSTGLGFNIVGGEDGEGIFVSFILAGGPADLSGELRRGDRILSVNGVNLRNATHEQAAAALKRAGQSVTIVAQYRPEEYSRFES

T5: GRIP1_3, Q9Y3R0
T5 sequence (Q9Y3R0 247-346, limits assumed, looked up): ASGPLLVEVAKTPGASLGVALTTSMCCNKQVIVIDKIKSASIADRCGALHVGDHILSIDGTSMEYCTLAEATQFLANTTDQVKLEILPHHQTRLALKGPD

T6: DFNB31_3, Q9P202
T6 sequence (Q9P202 811-907, limits assumed, looked up): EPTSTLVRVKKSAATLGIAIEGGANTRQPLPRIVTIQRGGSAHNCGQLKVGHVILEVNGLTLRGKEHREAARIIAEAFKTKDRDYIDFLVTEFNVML

T7: HTRA3, P83110
T7 sequence (P83110 354-453, limits assumed, looked up): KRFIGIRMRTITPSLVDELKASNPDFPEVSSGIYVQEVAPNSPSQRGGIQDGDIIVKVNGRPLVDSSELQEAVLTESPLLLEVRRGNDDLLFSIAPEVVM

T8: DFNB31_1, Q9P202
T8 sequence (Q9P202 135-233, limits assumed, looked up): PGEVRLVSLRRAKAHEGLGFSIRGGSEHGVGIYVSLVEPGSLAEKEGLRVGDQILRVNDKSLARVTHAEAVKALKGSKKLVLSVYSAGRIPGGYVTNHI

T9: LIN7C, Q9NUP9
T9 sequence (Q9NUP9 88-185, limits assumed, looked up): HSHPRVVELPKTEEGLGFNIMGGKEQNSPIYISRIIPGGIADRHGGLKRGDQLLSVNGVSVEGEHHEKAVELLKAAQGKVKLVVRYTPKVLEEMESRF

T10: SIPA1L2, Q9P2F8
T10 sequence (Q9P2F8 945-1036, limits assumed, looked up): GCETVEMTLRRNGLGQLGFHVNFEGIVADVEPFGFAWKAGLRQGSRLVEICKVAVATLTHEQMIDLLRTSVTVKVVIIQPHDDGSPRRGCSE

T11: LIN7B, Q9HAP6
T11 sequence (Q9HAP6 88-185, limits assumed, looked up): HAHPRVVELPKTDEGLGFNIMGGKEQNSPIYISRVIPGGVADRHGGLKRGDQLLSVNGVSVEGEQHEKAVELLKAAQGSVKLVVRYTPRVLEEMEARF

T12: GRIP1_4, Q9Y3R0
T12 sequence (Q9Y3R0 467-571, limits assumed, looked up): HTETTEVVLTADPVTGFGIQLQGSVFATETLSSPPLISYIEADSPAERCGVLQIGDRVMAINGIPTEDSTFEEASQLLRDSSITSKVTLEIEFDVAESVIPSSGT

T13: ARHGEF11, O15085
T13 sequence (O15085 42-136, limits assumed, looked up): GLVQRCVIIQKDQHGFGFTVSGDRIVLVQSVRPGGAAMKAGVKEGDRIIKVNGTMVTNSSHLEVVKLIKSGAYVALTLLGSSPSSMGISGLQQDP


Assays:
Test in all cases: holdup assay
Set-up in all cases: key: below the threshold = too weak to quantify, mostly under pKd 3.1 to 4
Conditions in all cases: plain residues with an end cap or a label only (N-terminal biotin on a linker: ado-ado)
GORASP1, Q9BQQ3 = biological target: GORASP1, Q9BQQ3
GIPC2, Q8TF65 = biological target: GIPC2, Q8TF65
Inadl_2, Q8NI35 = biological target: Inadl_2, Q8NI35
FRMPD4, Q14CM0 = biological target: FRMPD4, Q14CM0
SNTA1, Q13424 = biological target: T1, SNTA1, Q13424
CASK, O14936 = biological target: CASK, O14936
NHERF4_2, Q86UT5 = biological target: NHERF4_2, Q86UT5
MPP7, Q5T2T1 = biological target: T2, MPP7, Q5T2T1
PDZRN3_1, Q9UPQ7 = biological target: T3, PDZRN3_1, Q9UPQ7
DLG3_3, Q92796 = biological target: T4, DLG3_3, Q92796
GRIP1_3, Q9Y3R0 = biological target: T5, GRIP1_3, Q9Y3R0
DFNB31_3, Q9P202 = biological target: T6, DFNB31_3, Q9P202
GRID2IP_1, A4D2P6 = biological target: GRID2IP_1, A4D2P6
MAGI2_4, Q86UL8 = biological target: MAGI2_4, Q86UL8
HTRA3, P83110 = biological target: T7, HTRA3, P83110
DFNB31_1, Q9P202 = biological target: T8, DFNB31_1, Q9P202
LIN7C, Q9NUP9 = biological target: T9, LIN7C, Q9NUP9
GRIP2_5, Q9C0E4 = biological target: GRIP2_5, Q9C0E4
GOPC, Q9HD26 = biological target: GOPC, Q9HD26
SIPA1L2, Q9P2F8 = biological target: T10, SIPA1L2, Q9P2F8
LIN7B, Q9HAP6 = biological target: T11, LIN7B, Q9HAP6
DLG4_2, P78352 = biological target: DLG4_2, P78352
GRIP1_4, Q9Y3R0 = biological target: T12, GRIP1_4, Q9Y3R0
ARHGEF11, O15085 = biological target: T13, ARHGEF11, O15085
GORASP2, Q9H8Y8 = biological target: GORASP2, Q9H8Y8

Chain of Inadl_2, Q8NI35 (Q8NI35 238-335): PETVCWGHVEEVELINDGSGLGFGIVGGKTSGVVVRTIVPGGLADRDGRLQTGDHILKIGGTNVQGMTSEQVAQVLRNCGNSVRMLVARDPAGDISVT
Chain of GRID2IP_1, A4D2P6 (A4D2P6 1-87): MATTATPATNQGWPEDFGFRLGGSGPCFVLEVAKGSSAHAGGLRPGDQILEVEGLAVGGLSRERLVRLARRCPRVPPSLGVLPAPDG
Chain of GRIP2_5, Q9C0E4 (Q9C0E4 544-642): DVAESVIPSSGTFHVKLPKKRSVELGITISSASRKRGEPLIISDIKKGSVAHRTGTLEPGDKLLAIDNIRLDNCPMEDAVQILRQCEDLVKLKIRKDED
Chain of DLG4_2, P78352 (P78352 155-259): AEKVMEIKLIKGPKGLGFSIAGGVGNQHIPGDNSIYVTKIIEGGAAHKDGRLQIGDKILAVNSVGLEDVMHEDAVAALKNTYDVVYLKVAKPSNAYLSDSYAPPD
Chain of FRMPD4, Q14CM0 (Q14CM0 67-160): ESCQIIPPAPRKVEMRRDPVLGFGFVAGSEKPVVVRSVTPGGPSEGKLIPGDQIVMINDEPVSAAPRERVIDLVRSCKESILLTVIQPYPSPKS
Chain of GIPC2, Q8TF65 (Q8TF65 112-203): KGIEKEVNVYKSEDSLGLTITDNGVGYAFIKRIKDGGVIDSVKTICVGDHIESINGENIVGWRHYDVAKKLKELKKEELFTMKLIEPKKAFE
Chain of NHERF4_2, Q86UT5 (Q86UT5 220-308): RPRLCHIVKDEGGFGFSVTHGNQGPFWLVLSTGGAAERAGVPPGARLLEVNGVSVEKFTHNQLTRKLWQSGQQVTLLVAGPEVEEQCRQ
Chain of MAGI2_4, Q86UL8 (Q86UL8 772-865): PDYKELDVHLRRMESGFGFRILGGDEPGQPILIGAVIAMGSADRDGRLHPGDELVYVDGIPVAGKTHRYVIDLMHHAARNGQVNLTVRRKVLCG
Chain of CASK, O14936 (O14936 487-570): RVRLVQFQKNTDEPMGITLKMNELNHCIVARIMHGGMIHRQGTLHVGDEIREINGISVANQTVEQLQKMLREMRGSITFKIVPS
Chain of GORASP1, Q9BQQ3 (Q9BQQ3 1-208): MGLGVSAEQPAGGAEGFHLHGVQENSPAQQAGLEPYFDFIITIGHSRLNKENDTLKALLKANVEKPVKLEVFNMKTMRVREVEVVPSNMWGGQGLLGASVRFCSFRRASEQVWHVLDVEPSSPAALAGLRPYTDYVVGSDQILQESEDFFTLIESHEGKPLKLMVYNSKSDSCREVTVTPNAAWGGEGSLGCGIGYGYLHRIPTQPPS

Binder | pKd (GORASP1, Q9BQQ3) | pKd (GIPC2, Q8TF65) | pKd (Inadl_2, Q8NI35) | pKd (FRMPD4, Q14CM0) | pKd (SNTA1, Q13424) | pKd (CASK, O14936) | pKd (NHERF4_2, Q86UT5) | pKd (MPP7, Q5T2T1) | pKd (PDZRN3_1, Q9UPQ7) | pKd (DLG3_3, Q92796) | pKd (GRIP1_3, Q9Y3R0) | pKd (DFNB31_3, Q9P202) | pKd (GRID2IP_1, A4D2P6) | pKd (MAGI2_4, Q86UL8) | pKd (HTRA3, P83110) | pKd (DFNB31_1, Q9P202) | pKd (LIN7C, Q9NUP9) | pKd (GRIP2_5, Q9C0E4) | pKd (GOPC, Q9HD26) | pKd (SIPA1L2, Q9P2F8) | further results
PLATCDETSI [SEMA4F, O95754] | below the threshold | 3.52 | below the threshold | below the threshold | 4.01 | below the threshold | below the threshold | 3.54 | 4.03 | below the threshold | below the threshold | 3.7 | below the threshold | below the threshold | below the threshold | 5.13 | below the threshold | below the threshold | below the threshold | below the threshold | pKd (LIN7B, Q9HAP6): 3.78; pKd (DLG4_2, P78352): 3.67; pKd (GRIP1_4, Q9Y3R0): below the threshold; pKd (ARHGEF11, O15085): below the threshold; pKd (GORASP2, Q9H8Y8): below the threshold
GQNMTVSVVI [PRLHR, P49683] | 4.28 | below the threshold | below the threshold | below the threshold | 3.89 | below the threshold | below the threshold | below the threshold | below the threshold | below the threshold | below the threshold | 4.21 | below the threshold | below the threshold | 3.72 | below the threshold | below the threshold | below the threshold | below the threshold | 3.54 | pKd (LIN7B, Q9HAP6): 3.79; pKd (DLG4_2, P78352): below the threshold; pKd (GRIP1_4, Q9Y3R0): below the threshold; pKd (ARHGEF11, O15085): 4.94; pKd (GORASP2, Q9H8Y8): below the threshold

The next lines start with results.

pKd (GORASP1, Q9BQQ3) | pKd (GIPC2, Q8TF65) | pKd (Inadl_2, Q8NI35) | pKd (FRMPD4, Q14CM0) | pKd (SNTA1, Q13424) | pKd (CASK, O14936) | pKd (NHERF4_2, Q86UT5) | pKd (MPP7, Q5T2T1) | pKd (PDZRN3_1, Q9UPQ7) | pKd (DLG3_3, Q92796) | pKd (GRIP1_3, Q9Y3R0) | pKd (DFNB31_3, Q9P202) | pKd (GRID2IP_1, A4D2P6) | pKd (MAGI2_4, Q86UL8) | pKd (HTRA3, P83110) | pKd (DFNB31_1, Q9P202) | pKd (LIN7C, Q9NUP9) | pKd (GRIP2_5, Q9C0E4) | pKd (GOPC, Q9HD26) | pKd (SIPA1L2, Q9P2F8) | Binder | further results
below the threshold | below the threshold | below the threshold | below the threshold | 3.59 | below the threshold | 3.63 | below the threshold | below the threshold | 3.81 | below the threshold | 4.16 | below the threshold | below the threshold | below the threshold | 3.79 | below the threshold | 3.58 | 4.29 | 3.62 | IKLETKKTKL [SLC15A2, Q16348] | pKd (LIN7B, Q9HAP6): below the threshold; pKd (DLG4_2, P78352): 3.87; pKd (GRIP1_4, Q9Y3R0): below the threshold; pKd (ARHGEF11, O15085): 4.27; pKd (GORASP2, Q9H8Y8): below the threshold
3.57 | below the threshold | below the threshold | below the threshold | below the threshold | below the threshold | below the threshold | below the threshold | below the threshold | below the threshold | below the threshold | below the threshold | below the threshold | below the threshold | below the threshold | below the threshold | 3.95 | below the threshold | below the threshold | below the threshold | FVFESRKEIL [TBPL1, P62380] | pKd (LIN7B, Q9HAP6): below the threshold; pKd (DLG4_2, P78352): below the threshold; pKd (GRIP1_4, Q9Y3R0): below the threshold; pKd (ARHGEF11, O15085): below the threshold; pKd (GORASP2, Q9H8Y8): below the threshold
below the threshold | 4 | below the threshold | 4.35 | 5.64 | below the threshold | below the threshold | below the threshold | 6.34 | 4.64 | below the threshold | 3.5 | below the threshold | below the threshold | below the threshold | 4.85 | 4.83 | below the threshold | 4.43 | below the threshold | GTMFLRETSL [GUCY1A2, P33402] | pKd (LIN7B, Q9HAP6): 4.74; pKd (DLG4_2, P78352): 4.5; pKd (GRIP1_4, Q9Y3R0): below the threshold; pKd (ARHGEF11, O15085): 4.52; pKd (GORASP2, Q9H8Y8): below the threshold
